Measured values as given in paper PMC9482650, “Quantitative fragmentomics allow affinity mapping of interactomes” (Nature Communications, 2022).

T1: TIAM2, Q8IVF5
T1 sequence (Q8IVF5 885-986, limits assumed, looked up): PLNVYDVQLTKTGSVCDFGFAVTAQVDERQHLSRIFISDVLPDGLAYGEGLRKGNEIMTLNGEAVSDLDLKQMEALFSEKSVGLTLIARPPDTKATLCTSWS

T2: DFNB31_1, Q9P202
T2 sequence (Q9P202 135-233, limits assumed, looked up): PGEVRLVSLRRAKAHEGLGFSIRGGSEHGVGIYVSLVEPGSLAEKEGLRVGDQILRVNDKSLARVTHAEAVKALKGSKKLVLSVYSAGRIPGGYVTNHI

T3: MPDZ_10, O75970
T3 sequence (O75970 1624-1722, limits assumed, looked up): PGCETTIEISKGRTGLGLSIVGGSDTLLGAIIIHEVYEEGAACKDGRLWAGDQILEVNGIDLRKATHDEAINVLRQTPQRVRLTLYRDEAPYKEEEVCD

T4: SNTG2, Q9NY99
T4 sequence (Q9NY99 68-166, limits assumed, looked up): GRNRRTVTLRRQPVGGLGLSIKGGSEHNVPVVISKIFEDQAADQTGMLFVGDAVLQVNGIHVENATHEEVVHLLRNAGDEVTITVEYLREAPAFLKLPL

T5: SNTA1, Q13424
T5 sequence (Q13424 82-180, limits assumed, looked up): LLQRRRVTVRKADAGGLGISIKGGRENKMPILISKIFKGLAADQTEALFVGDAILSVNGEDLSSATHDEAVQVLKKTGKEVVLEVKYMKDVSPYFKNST

T6: SNTG1, Q9NSN8
T6 sequence (Q9NSN8 52-150, limits assumed, looked up): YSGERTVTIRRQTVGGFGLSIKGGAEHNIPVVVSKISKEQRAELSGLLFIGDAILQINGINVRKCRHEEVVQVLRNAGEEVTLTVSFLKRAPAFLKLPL

T7: HTRA4, P83105
T7 sequence (P83105 378-476, limits assumed, looked up): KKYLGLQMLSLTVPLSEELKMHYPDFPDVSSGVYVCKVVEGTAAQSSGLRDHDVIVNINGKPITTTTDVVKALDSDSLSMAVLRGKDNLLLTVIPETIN

T8: DLG3_2, Q92796
T8 sequence (Q92796 221-321, limits assumed, looked up): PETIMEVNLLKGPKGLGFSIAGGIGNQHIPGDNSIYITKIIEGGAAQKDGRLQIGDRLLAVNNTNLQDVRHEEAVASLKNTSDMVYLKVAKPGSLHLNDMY

T9: LIN7B, Q9HAP6
T9 sequence (Q9HAP6 88-185, limits assumed, looked up): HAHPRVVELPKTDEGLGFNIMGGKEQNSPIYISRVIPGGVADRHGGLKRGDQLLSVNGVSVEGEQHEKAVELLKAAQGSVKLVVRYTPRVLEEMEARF

T10: NHERF3_1, Q5T2W1
T10 sequence (Q5T2W1 4-100, limits assumed, looked up): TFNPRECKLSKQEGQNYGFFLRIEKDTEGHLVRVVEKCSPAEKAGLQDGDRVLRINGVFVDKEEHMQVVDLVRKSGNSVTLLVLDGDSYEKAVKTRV

T11: RAPGEF6, Q8TEU7
T11 sequence (Q8TEU7 525-625, limits assumed, looked up): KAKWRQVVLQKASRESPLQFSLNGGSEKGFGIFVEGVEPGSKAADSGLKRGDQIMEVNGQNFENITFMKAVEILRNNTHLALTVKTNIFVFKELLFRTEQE


Columns and labels:
Assay in all cases: holdup assay
Design in all cases: key: below the threshold = too weak to quantify, mostly under pKd 3.1 to 4
Conditions in all cases: plain residues with an end cap or a label only (N-terminal biotin on a linker: ado-ado)
GOPC, Q9HD26 = target: GOPC, Q9HD26
DLG4_3, P78352 = target: DLG4_3, P78352
IL16_4, Q14005 = target: IL16_4, Q14005
TIAM2, Q8IVF5 = target: T1, TIAM2, Q8IVF5
DFNB31_1, Q9P202 = target: T2, DFNB31_1, Q9P202
GORASP2, Q9H8Y8 = target: GORASP2, Q9H8Y8
CASK, O14936 = target: CASK, O14936
PARD3_3, Q8TEW0 = target: PARD3_3, Q8TEW0
MPDZ_10, O75970 = target: T3, MPDZ_10, O75970
SCRIB_1, Q14160 = target: SCRIB_1, Q14160
GRIP2_5, Q9C0E4 = target: GRIP2_5, Q9C0E4
FRMPD2_2, Q68DX3 = target: FRMPD2_2, Q68DX3
SNTG2, Q9NY99 = target: T4, SNTG2, Q9NY99
Inadl_8, Q8NI35 = target: Inadl_8, Q8NI35
SNTA1, Q13424 = target: T5, SNTA1, Q13424
SNTG1, Q9NSN8 = target: T6, SNTG1, Q9NSN8
HTRA4, P83105 = target: T7, HTRA4, P83105
DLG3_2, Q92796 = target: T8, DLG3_2, Q92796
LIN7B, Q9HAP6 = target: T9, LIN7B, Q9HAP6
NHERF3_1, Q5T2W1 = target: T10, NHERF3_1, Q5T2W1
RAPGEF6, Q8TEU7 = target: T11, RAPGEF6, Q8TEU7
NOS1, P29475 = target: NOS1, P29475
PDLIM1, O00151 = target: PDLIM1, O00151
LIMK2, P53671 = target: LIMK2, P53671
DLG5_1, Q8TDM6 = target: DLG5_1, Q8TDM6
IL16_1, Q14005 = target: IL16_1, Q14005
Chain of IL16_1, Q14005 (Q14005 210-306): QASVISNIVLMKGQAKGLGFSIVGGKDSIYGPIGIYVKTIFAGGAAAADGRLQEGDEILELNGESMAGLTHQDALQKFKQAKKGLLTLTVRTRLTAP

Chain of CASK, O14936 (O14936 487-570): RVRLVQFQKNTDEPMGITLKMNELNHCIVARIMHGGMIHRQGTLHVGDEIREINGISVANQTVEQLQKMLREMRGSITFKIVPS
Chain of SCRIB_1, Q14160 (Q14160 718-814): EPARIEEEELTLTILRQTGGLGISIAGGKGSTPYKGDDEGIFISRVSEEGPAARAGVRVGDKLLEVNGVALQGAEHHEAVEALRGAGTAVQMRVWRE
Chain of PARD3_3, Q8TEW0 (Q8TEW0 582-685): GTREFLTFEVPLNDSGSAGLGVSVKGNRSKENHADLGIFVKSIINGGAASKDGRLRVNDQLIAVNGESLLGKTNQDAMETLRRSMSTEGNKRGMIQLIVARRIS
Chain of PDLIM1, O00151 (O00151 1-87): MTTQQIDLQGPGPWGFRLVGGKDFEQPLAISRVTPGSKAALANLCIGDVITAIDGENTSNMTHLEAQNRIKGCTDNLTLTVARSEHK
Chain of LIMK2, P53671 (P53671 143-248): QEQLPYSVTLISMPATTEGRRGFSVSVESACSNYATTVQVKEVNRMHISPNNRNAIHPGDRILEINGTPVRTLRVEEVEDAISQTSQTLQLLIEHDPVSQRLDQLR
Chain of NOS1, P29475 (P29475 9-101): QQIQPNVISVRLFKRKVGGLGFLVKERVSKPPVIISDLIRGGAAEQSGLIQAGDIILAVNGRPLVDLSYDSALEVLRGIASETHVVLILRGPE
Chain of FRMPD2_2, Q68DX3 (Q68DX3 944-1038): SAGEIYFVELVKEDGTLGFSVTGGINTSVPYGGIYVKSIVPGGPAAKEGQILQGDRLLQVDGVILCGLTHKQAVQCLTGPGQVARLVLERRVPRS
Chain of DLG5_1, Q8TDM6 (Q8TDM6 617-713): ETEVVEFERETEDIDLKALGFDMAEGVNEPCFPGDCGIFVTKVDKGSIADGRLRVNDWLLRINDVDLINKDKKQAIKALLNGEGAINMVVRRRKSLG
Chain of GRIP2_5, Q9C0E4 (Q9C0E4 544-642): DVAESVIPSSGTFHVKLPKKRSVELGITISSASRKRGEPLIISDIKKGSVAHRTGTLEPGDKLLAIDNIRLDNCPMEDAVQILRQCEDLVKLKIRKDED
Chain of DLG4_3, P78352 (P78352 306-403): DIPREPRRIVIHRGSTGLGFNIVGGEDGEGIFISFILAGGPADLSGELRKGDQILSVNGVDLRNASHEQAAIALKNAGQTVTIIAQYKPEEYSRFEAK
Chain of IL16_4, Q14005 (Q14005 1229-1329): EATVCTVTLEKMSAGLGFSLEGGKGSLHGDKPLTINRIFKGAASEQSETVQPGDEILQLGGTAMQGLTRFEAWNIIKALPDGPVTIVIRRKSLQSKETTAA
Chain of Inadl_8, Q8NI35 (Q8NI35 1425-1530): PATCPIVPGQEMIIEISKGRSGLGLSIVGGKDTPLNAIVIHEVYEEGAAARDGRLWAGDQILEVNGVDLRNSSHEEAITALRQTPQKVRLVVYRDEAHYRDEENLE

pKd (GOPC, Q9HD26) | pKd (DLG4_3, P78352) | pKd (IL16_4, Q14005) | pKd (TIAM2, Q8IVF5) | pKd (DFNB31_1, Q9P202) | pKd (GORASP2, Q9H8Y8) | pKd (CASK, O14936) | pKd (PARD3_3, Q8TEW0) | pKd (MPDZ_10, O75970) | pKd (SCRIB_1, Q14160) | pKd (GRIP2_5, Q9C0E4) | pKd (FRMPD2_2, Q68DX3) | pKd (SNTG2, Q9NY99) | pKd (Inadl_8, Q8NI35) | pKd (SNTA1, Q13424) | pKd (SNTG1, Q9NSN8) | pKd (HTRA4, P83105) | pKd (DLG3_2, Q92796) | pKd (LIN7B, Q9HAP6) | pKd (NHERF3_1, Q5T2W1) | Binder | further results
below the threshold | below the threshold | below the threshold | below the threshold | below the threshold | 3.62 | below the threshold | 3.85 | below the threshold | below the threshold | below the threshold | below the threshold | below the threshold | below the threshold | below the threshold | below the threshold | below the threshold | below the threshold | below the threshold | below the threshold | LKVPPEERLI [CRB2, Q5IJ48] | pKd (RAPGEF6, Q8TEU7): below the threshold; pKd (NOS1, P29475): below the threshold; pKd (PDLIM1, O00151): below the threshold; pKd (LIMK2, P53671): below the threshold; pKd (DLG5_1, Q8TDM6): below the threshold; pKd (IL16_1, Q14005): below the threshold
below the threshold | below the threshold | below the threshold | 3.8 | below the threshold | below the threshold | below the threshold | below the threshold | below the threshold | below the threshold | below the threshold | below the threshold | below the threshold | below the threshold | below the threshold | below the threshold | below the threshold | 4.1 | 3.75 | 3.61 | RKPKPSSSCC [RAB9A, P51151] | pKd (RAPGEF6, Q8TEU7): below the threshold; pKd (NOS1, P29475): below the threshold; pKd (PDLIM1, O00151): below the threshold; pKd (LIMK2, P53671): below the threshold; pKd (DLG5_1, Q8TDM6): below the threshold; pKd (IL16_1, Q14005): below the threshold

The remaining lines, values behind:

Binder | pKd (GOPC, Q9HD26) | pKd (DLG4_3, P78352) | pKd (IL16_4, Q14005) | pKd (TIAM2, Q8IVF5) | pKd (DFNB31_1, Q9P202) | pKd (GORASP2, Q9H8Y8) | pKd (CASK, O14936) | pKd (PARD3_3, Q8TEW0) | pKd (MPDZ_10, O75970) | pKd (SCRIB_1, Q14160) | pKd (GRIP2_5, Q9C0E4) | pKd (FRMPD2_2, Q68DX3) | pKd (SNTG2, Q9NY99) | pKd (Inadl_8, Q8NI35) | pKd (SNTA1, Q13424) | pKd (SNTG1, Q9NSN8) | pKd (HTRA4, P83105) | pKd (DLG3_2, Q92796) | pKd (LIN7B, Q9HAP6) | pKd (NHERF3_1, Q5T2W1) | further results
TASPAKETSF [SLC2A7, Q6PXP3] | below the threshold | below the threshold | below the threshold | 3.63 | 3.94 | below the threshold | below the threshold | below the threshold | below the threshold | 4.56 | below the threshold | below the threshold | below the threshold | below the threshold | 3.57 | 3.56 | below the threshold | 4.25 | 4.5 | 4.95 | pKd (RAPGEF6, Q8TEU7): below the threshold; pKd (NOS1, P29475): below the threshold; pKd (PDLIM1, O00151): below the threshold; pKd (LIMK2, P53671): below the threshold; pKd (DLG5_1, Q8TDM6): below the threshold; pKd (IL16_1, Q14005): below the threshold
YRLAQESGLV [ABCC6, O95255] | below the threshold | below the threshold | below the threshold | below the threshold | below the threshold | below the threshold | below the threshold | below the threshold | below the threshold | below the threshold | below the threshold | below the threshold | 3.61 | below the threshold | below the threshold | below the threshold | 3.79 | below the threshold | below the threshold | 3.76 | pKd (RAPGEF6, Q8TEU7): below the threshold; pKd (NOS1, P29475): below the threshold; pKd (PDLIM1, O00151): below the threshold; pKd (LIMK2, P53671): below the threshold; pKd (DLG5_1, Q8TDM6): below the threshold; pKd (IL16_1, Q14005): below the threshold
MLSKQSESAI [FLVCR1, Q9Y5Y0] | below the threshold | below the threshold | below the threshold | below the threshold | 4.86 | below the threshold | below the threshold | below the threshold | below the threshold | 3.91 | below the threshold | below the threshold | 3.81 | below the threshold | 3.73 | 3.93 | 3.91 | 3.68 | below the threshold | 3.81 | pKd (RAPGEF6, Q8TEU7): below the threshold; pKd (NOS1, P29475): 3.79; pKd (PDLIM1, O00151): below the threshold; pKd (LIMK2, P53671): below the threshold; pKd (DLG5_1, Q8TDM6): below the threshold; pKd (IL16_1, Q14005): below the threshold
